Results: patent US20150045310A1
Where no end group is shown, it is not given here. eCPX = enhanced circularly permuted OmpX display scaffold; linker = not defined here

Columns and labels:
[1] = molecular target: A1 (biotinylated pro-survival Bcl-2 family protein) (UniProt Q16548); assay: flow cytometry of E. coli displaying the peptide on eCPX, biotinylated target + streptavidin-PE; apparent Kd
[2] = molecular target: A1 (biotinylated pro-survival Bcl-2 family protein) (UniProt Q16548); assay: apparent Kd, bacterial surface display and flow cytometry

B1: wild-type Bim BH3 14-mer peptide (residues 147-160) displayed on eCPX (peptide, not shown: large carriers; small tags and cut ends)
peptide: WIAQELRRIGDEFN-{linker-eCPX}
modifications: reading uncertain
**Q.** How did the Kd [1] turn out when B1 was run?
**A.** 26.9 nM

B2: Bim BH3 14-mer E151Q (pseudo-wild-type) displayed on eCPX (peptide, not shown: large carriers; small tags and cut ends)
peptide: WIAQQLRRIGDEFN
modifications: not fully specified
**Q.** B2 was tested. Which Kd [1] did it give?
**A.** 29.6 nM

B3: Bim BH3 14-mer variant X2-3 displayed on eCPX (peptide, not shown: large carriers; small tags and cut ends)
peptide: WVAQWLRRWGDEFN
modifications: also: displayed as fusion to eCPX scaffold (letters not given here)
**Q.** B3 was tested. Which Kd [1] did it give?
**A.** 30.2 nM

B4: Bim BH3 14-mer variant X2-8 displayed on eCPX (peptide, not shown: large carriers; small tags and cut ends)
peptide: WLAQLLRRYGDEFN
modifications: also: displayed as fusion to eCPX scaffold (letters not given here)
**Q.** For B4, which Kd [1] is on record?
**A.** 40.5 nM

B5: Bim BH3 14-mer variant M2-2 displayed on eCPX (peptide, not shown: large carriers; small tags and cut ends)
peptide: WVAQLLRRIGDEVN-{linker-eCPX}
modifications: reading uncertain; also: printed as Trp-Val-Ala-Gln-Leu-Leu-Arg-Arg-Ile-Gly-Asp-Glu-Val-Asn
**Q.** Which fold affinity improvement against wild-type Bim 14-mer [2] does the source give for B5 here?
**A.** 3 fold

**Q.** What about the Kd [1] of the same binder?
**A.** 9.99 nM

B6: Bim BH3 14-mer variant M2-4 displayed on eCPX (peptide, not shown: large carriers; small tags and cut ends)
peptide: WLAQLLRRIGDEIN-{linker-eCPX}
modifications: reading uncertain; also: printed as Trp-Leu-Ala-Gln-Leu-Leu-Arg-Arg-Ile-Gly-Asp-Glu-Ile-Asn
**Q.** Which fold affinity improvement against wild-type Bim 14-mer [2] does the source give for B6 here?
**A.** 6 fold

**Q.** And the Kd [1]?
**A.** 4.18 nM
